Experimental findings from the DeepSol protein solubility set are described below.

The data set is described as follows: soluble on expression in E. coli; label from the status in PepcDB or PDB records.
With “MLSLKLVSQLFKQSLASGNMAIVNTAGLKYFAPPIKYQNVEQPERPKLRVIERQPQLPPNIRPPKMQKRLRYMRGPEMVHNTLLHKQYAIVATGGGRLRWGHYEMMRLTIGRKMNVNTMFATWRVPAPWQPITKKGQGQRMGGGKGAIDHYVTPIKAGRVIVEIAGKCEFVEVKQFLQQVANQLPFQATVVSQEMLDEQRVAEEEQTRQNENPFTMKYVIQNNLSGCHRWLSPVDHKWFGKHLLEHHHHHH”, the “soluble on expression in E. coli” value is on record as “not soluble”.
Under “RLLLNGDGTPVGGAWNFDAENRKALPKGVAAPYPMRFSADAITRDVLTLVAERFASHYGSLDTFDYPVTQADAQALWEYFLDFGLAGFGDYQDAMATDEPFLFHARISAALNIGLLDLRQICSDVESAYWSGRVALNAAEGFIRQLIGWREYVRGVYWLKM” stands “not soluble”; under “MPGHTSWDATFLEPAPPLPHPSECGQPCVSGQSQMFQHRTTNAQGPPPNRPMPRPPAGMPMMTSSHEHDYTNDYEDPEEMARSRGEGFSNHLLIKTTPPPQPHPNFNSYEMSMSQQRRSQQHQQPMAPPLSDCWGSGVHDSGVLHKNADGAYYIPSGSCKF”, “not soluble”; under “TLLPQVQVLSWDHYVASSPQIYEPSLMIVAQGSKLARLGPRTLEYGAGHYLVQALSVPFMCETFATREAPLLGVAVGIDRGVLGELVQSMGLAPDAEVQAQTPQSMTSAALDAPMRESVERLLHCLQDPLDAKVLGPARVREVLYTALRGPQAGVL”, “not soluble”.
On to “MGSDKIHHHHHHMKVLEKDYQINSVRKAIDAGANSIIALPTGGGKSICILKLCQAMPDKKVVISLRNAALVPQLLHTLTINGLSVSVVKSGYKYIAGGDVTLVMEQSFGRRKHLNIQCDVLLRDEYHVGCMGGVYIAMREELSPDLIIGLTATPIDRLGVYIDKSMQLIEETTTKMLIEAGELAKPVYKVPSLSQEIDYSAVKMYRGDFSVSGLDNILLEHCSLVAQQTVDDALSHGRKVMLFANSINHVESLSEAFDLLGIEHERVHSQRSSDENDESIRRYKSNEVRLIINMSMLTIGFDDPTTDCVVLARPTKILRLYLQIIGRCLRASKGKTSALILDLAQCISTHGFAEDLRDFTRKTSKSAAIMAERLSVTNIGQFVDGEFTYNESIERKVVKKRAPVIRRKPRDGLVASKELVDRAASNRAAALLRLNPRMEKLVSTIELVNIVYEQQDESSKMLDEVAMVKLVALIGFAYSDALVDSCTALVEGLHAQNQSIRGLPLRVSNLITSIAMQDLGVKEVVTKS”, for which the “soluble on expression in E. coli” value was “not soluble”.
For “MIKVAIIGAENVGKSTLMNALLGGKFSEVSETPGTTKGIIKRAFGKIKLPKTMKNPFGGADELVLIDTAGLFDPEKEIRGKVLSEEKFKELIKEIVNADVIIHMIDATKGLHRGMEKLHYMLKFRYEKPIIVVINKIDLVSREELERLRELVKKRLEQEPILLSLVTYEGFNELLKALTYYAQYVE”, the “soluble on expression in E. coli” value is “soluble”.
In the case of “MVKIGVCGPVGSGKTALIEALTRHMSKDYDMAVITNDIYTKEDAEFMCKNSVMPRERIIGVETGGCPHTAIREDASMNLEAVEEMHGRFPNLELLLIESGGDNLSATFNPELADFTIFVIDVAEGDKIPRKGGPGITRSDLLVINKIDLAPYVGADLKVMERDSKKMRGEKPFIFTNIRAKEGLDDVIAWIKRNALLEDLEHHHHHH”, the “soluble on expression in E. coli” value is recorded as “soluble”.
As to “MKFGGVLLIVKDINKSKKFYEDVMEQKITLDLGEHVSFENGFGLQSNYKAIIGYDLPIYQQSNNFQLYFEVNDIKQWESKINRIGNIEFLHYIKEYPWGQRTFRFYDFDKNIIEISESMESVIKRLLKQGLALEEISKRTMYPVEFITQFQQLLEHHHHHH”, the “soluble on expression in E. coli” value is “soluble”.
Regarding “MDILFRIRGGFDLAFQLAPPKEMFIKNALRQVLSDLTTKLSSDALVLRVCNSSVYLWPNSDANTGELTDSSACKNVVRFIQFDQEEDTKRKFIKKKDKKLTDTQQIVNIDLMLEISTPLGAVTPILERENEEHHYINMSLPIDAVVSVAPEESWGKVRKLLVDAILRQLVDVEKCILRYMKGTSIVVPEPLHFQLPGKKNLVTVLYPSGIPDDQLQAYRKELHDLFNLPHDRPYFKRINAYHFPDELYKDGYIRNPHTYLSPPNIEGSMICVVQGTYAYHHYMQDRIDDNGWGCAYRSLQTICSWFRHQGYTERSIPTHREIQQALVDAGDKPATFVGSRQWIGSIEVQMVLNQLIGVTSKILFVNQGSEMASQGRELANHFQNVGTPVMVGGGVLAHTILGVAWNETTGQIKFLILDPHYTGAEDLQVMLEKGWCGWKSPDFWNKDAYYNLCLPQRPNAL”, the “soluble on expression in E. coli” value was “soluble”.
Under “MRNELNSNEYNLMASRQSRKILTGTLAAMENVKIGQDENVDCGVVFYDEFKILIPIREMNVSREDKRVIRSMIGAEIDFIVMEFDDENRTAIASRKEAMELRKNLELKKHKVGEKIFVRVTSVGRNNCRVDCYGIEYRVPINEIDYGYIDKVDKYVQVGDVVPAIIKELDIDNNIVVVSIKEAKEDPYLGIVKSLNKGGEYLGVVTGIKDYGIFLTIRKGVNCLCPFPNWANFSPAVGEKFVVRIKSINYDEKKINANLMRPINQRNKYNPTWGLGLEHHHHHH” stands “soluble”; under “GMHSAALLQKVDELPRLPKAIAELLDVVNNEDSTVKAVSEKLSHDPVLSARVLRLANSARFGCSREVGTIDDAVVRLGMQTLRTLVIASAVVGAVPKVEGFDLADFWGNTFEVAIICQELAKRLGTLPEEAFTCGILHSIGELLIVNGDPAVAATISAAVADGADRNLMEKELLGYDNAEIGALLAQSWKFTPHLVKGIQFQNHPKSAEPYSKLAGMLAMAKQIAADWDKIPDDERTSWLAQINILAGIKVDLGGLAEKLAKMHGQGMEMGKQLA”, “soluble”; under “MKRIILSIVWGLLTGWAAVPCLWAQSRTGTADREIWVKTLVRLADPVLSNLANETLKKEMPYESLAPNRQRFSYLEAVGRTVCGIAPWLELGEDDTPEGQLRKKYIELTVKGISNAVNPSSPDYLIFGEPSQPLVDAAFLAEGLLRAPKQLWGNLSPAARKQVVTELKRSRVIKPNESNWLLFASIVEAALQEFTGECDTTRLNYGVRKFRDLWYKGDAQYGDGAEFHLDYYNSFVIHPMLTDVLVVMQKHRMPESEFLNVQQKRLGRYAEQLERFISPEGTYPVIGRSIVYRTGVFHALGQAALLHLLPQQIVPAQVRCGMTKVIENQFRSAANFDTKGWLKIGFSGNQVQMSESYINTGSTYLCLTGFLPLGLPADDPFWSAPPAEWTNLKAWSGKEMPADHSLLEHHHHHH”, “not soluble”.
In the case of “MGSDKIHHHHHHMSTVHDEMGVMNTTVKFLHSSDLQIGMTRWFLSDEAQARFDDDRIRAIEKMGKIARKNQCEFIVLAGDVFEHNSLEQRTTGRALEALRSLKLPVYLLPGNHDPLTADSLFYRAKDIDGVTILSDTTVHGVAPGVEIIGAPLLHKMATSDLVAEALKDLEPTSNVRIAVGHGQAEARTTDHRADLIDLNTVEAKLADGTIDYLALGDTHSAQPVGTSGKVWFSGAPETTDFHDLDPDRVGGEVNSGKVLIVSASKGDVSVEEVEVGKWTFHALSKEITSGTDVEDFLDTLQAYPDKSRTVIKYGLRGTITLEQNRRLEEGIAGLEDVFASLKPRERTTDLVLEPGEEELANLDATGYAAEVLRELADSVVNGAAPEEDRDALNLLFRLSREV”, the “soluble on expression in E. coli” value was “not soluble”.
Under “MPLVNSHIVEECLPFTSLRLDPEDINLSMGAGYVPDAEIQAISDALETEIAGICTPRFLYALFDAEPAGTCEVGVNGISLKTGSVITPYLKDAAGYVLFVATAGYEFEAFQHRIGSQGDILREFLLDAYGSAIAEAVVREVCRKVESRMFPLGYGVSHPYSPGYCGWHVTQQQLLFSCLPEFPCGVRLSDSSLMSPIKSVSGIIAYGPCIVKRKYGCELCGKADCYKNRNKLNRLEHHHHHH” stands “soluble”; under “MYETYHSGWIETITGSMFSGKSEELIRRLRRGIYAKQKVVVFKPAIDDRYHKEKVVSHNGNEIEAINISTAQEILNHKLEEVNVIGIDEVQFFEDDIVNIVEKLAENGHRVIVAGLDMDFRGEPFKPMPKLLAVSEHITKLQAVCSVCGSPSSRTQRLINGEPAKVDDPIILVGANESYEPRCRAHHIVAPSENEKEEMLEHHHHHH”, “not soluble”.
“SLRKERARSAEEPWTQNQQKLLELALQQYPRGSSDCWDKIARCVPSKSKEDCIARYKLLV”: the “soluble on expression in E. coli” value is recorded as “soluble”.
